This note sets out measurements from FireProtDB.

B1: Alpha-amylase, P29957 (parent)
chain: MKLNKIITTAGLSLGLLLPSIATATPTTFVHLFEWNWQDVAQECEQYLGPKGYAAVQVSPPNEHITGSQWWTRYQPVSYELQSRGGNRAQFIDMVNRCSAAGVDIYVDTLINHMAAGSGTGTAGNSFGNKSFPIYSPQDFHESCTINNSDYGNDRYRVQNCELVGLADLDTASNYVQNTIAAYINDLQAIGVKGFRFDASKHVAASDIQSLMAKVNGSPVVFQEVIDQGGEAVGASEYLSTGLVTEFKYSTELGNTFRNGSLAWLSNFGEGWGFMPSSSAVVFVDNHDNQRGHGGAGNVITFEDGRLYDLANVFMLAYPYGYPKVMSSYDFHGDTDAGGPNVPVHNNGNLECFASNWKCEHRWSYIAGGVDFRNNTADNWAVTNWWDNTNNQISFGRGSSGHMAINKEDSTLTATVQTDMASGQYCNVLKGELSADAKSCSGEVITVNSDGTINLNIGAWDAMAIHKNAKLNTSSASSTESDWQRTVIFINAQTQSGQDMFIRGGIDHAYANANLGRNCQTSNFECAMPIRHNNLKNVTTSPWKANDNYLDWYGIENGQSSEAEGSATDWTTNVWPAGWGAEKTVNTDGFGVTPLNIWGEHYWMLDVDMDCSKAVNGWFELKAFIKNGQGWETAIAQDNAPYTSTNHMAQCGKINKFEFNNSGVVIRSF
B2: Beta-crystallin B2, P02522 (parent)
chain: MASDHQTQAGKPQPLNPKIIIFEQENFQGHSHELNGPCPNLKETGVEKAGSVLVQAGPWVGYEQANCKGEQFVFEKGEYPRWDSWTSSRRTDSLSSLRPIKVDSQEHKITLYENPNFTGKKMEVIDDDVPSFHAHGYQEKVSSVRVQSGTWVGYQYPGYRGLQYLLEKGDYKDSGDFGAPQPQVQSVRRIRDMQWHQRGAFHPSS
B3: Interleukin-6, P08505 (parent)
chain: MKFLSARDFHPVAFLGLMLVTTTAFPTSQVRRGDFTEDTTPNRPVYTTSQVGGLITHVLWEIVEMRKELCNGNSDCMNNDDALAENNLKLPEIQRNDGCYQTGYNQEICLLKISSGLLEYHSYLEYMKNNLKDNKKDKARVLQRDTETLIHIFNQEVKDLHKIVLPTPISNALLTDKLESQKEWLRTKTIQFILKSLEEFLKVTLRSTRQT
B4: Gamma-crystallin D, P07320 (parent)
chain: MGKITLYEDRGFQGRHYECSSDHPNLQPYLSRCNSARVDSGCWMLYEQPNYSGLQYFLRRGDYADHQQWMGLSDSVRSCRLIPHSGSHRIRLYEREDYRGQMIEFTEDCSCLQDRFRFNEIHSLNVLEGSWVLYELSNYRGRQYLLMPGDYRRYQDWGATNARVGSLRRVIDFS
B5: Ornithine carbamoyltransferase subunit I, P04391 (parent)
chain: MSGFYHKHFLKLLDFTPAELNSLLQLAAKLKADKKSGKEEAKLTGKNIALIFEKDSTRTRCSFEVAAYDQGARVTYLGPSGSQIGHKESIKDTARVLGRMYDGIQYRGYGQEIVETLAEYASVPVWNGLTNEFHPTQLLADLLTMQEHLPGKAFNEMTLVYAGDARNNMGNSMLEAAALTGLDLRLVAPQACWPEAALVTECRALAQQNGGNITLTEDVAKGVEGADFIYTDVWVSMGEAKEKWAERIALLREYQVNSKMMQLTGNPEVKFLHCLPAFHDDQTTLGKKMAEEFGLHGGMEVTDEVFESAASIVFDQAENRMHTIKAVMVATLSK
B6: Citrate synthase, mitochondrial, P00889 (parent)
chain: MALLTAAARLFGAKNASCLVLAARHASASSTNLKDILADLIPKEQARIKTFRQQHGNTVVGQITVDMMYGGMRGMKGLVYETSVLDPDEGIRFRGYSIPECQKMLPKAKGGEEPLPEGLFWLLVTGQIPTEEQVSWLSKEWAKRAALPSHVVTMLDNFPTNLHPMSQLSAAITALNSESNFARAYAEGIHRTKYWELIYEDCMDLIAKLPCVAAKIYRNLYREGSSIGAIDSKLDWSHNFTNMLGYTDAQFTELMRLYLTIHSDHEGGNVSAHTSHLVGSALSDPYLSFAAAMNGLAGPLHGLANQEVLVWLTQLQKEVGKDVSDEKLRDYIWNTLNSGRVVPGYGHAVLRKTDPRYTCQREFALKHLPHDPMFKLVAQLYKIVPNVLLEQGKAKNPWPNVDAHSGVLLQYYGMTEMNYYTVLFGVSRALGVLAQLIWSRALGFPLERPKSMSTDGLIKLVDSK

The variants in one data set derive from B1. The note with it: Pseudoalteromonas haloplanktis; pH 7.2; Thermal; DSC; MOPS 30 mM; NaCl 50 mM; reversible: yes; structure 1AQH; whole UniProt chain shown.
Q82C A123C: the Tm – broadly, the temperature at the midpoint of the melting transition – worked out at 40 °C; the “change of melting temperature, mutant - wild type (higher = more stable)” value (“change of melting temperature, mutant” below) was -4 °C; the “unfolding enthalpy (calorimetric)” value came to 78 kcal/mol.

Staying with this data set, now noted: Pseudoalteromonas haloplanktis; pH 7.2; Thermal; DSC; Mops 30 mM; NaCl 50 mM; reversible: yes; structure 1AQH; whole UniProt chain shown.
Turning to K324R N174D V220F Q188I T256V, the Tm came to 51.8 °C; the “change of melting temperature, mutant” value came to 7.8 °C; the “unfolding enthalpy (calorimetric)” value is 277 kcal/mol.

The variants in another data set derive from B2. The note with it: Bos taurus; pH 7.2; Thermal; fluorescence; sodium phospahte 20 mM; NaCl; transition: 2; structure 2BB2; whole UniProt chain shown.
In the case of W59C, the Tm worked out at 46.8 °C and the “change of melting temperature, mutant” value was -10 °C.

The variants in another data set derive from B3. The note with it: Mus musculus; pH 4; 25 °C; Urea; CD; Sodium acetate 20 mM/; reversible: yes; structure 2L3Y; whole UniProt chain shown.
As to Y123A, the “denaturant midpoint (higher = more stable)” value (shortened to “denaturant midpoint”) came out at 4.1 M.

As for F200A, the “denaturant midpoint” value was 2.6 M.

The data set is the same for the next values; noted with them: Mus musculus; pH 4; 25 °C; Urea; Fluorescence; Sodium acetate 20 mM/; reversible: yes; structure 2L3Y; whole UniProt chain shown.
For the variant F200A, the “denaturant midpoint” value turned out to be 3.5 M.

The data set is the same for the next values; noted with them: Mus musculus; pH 4; 37 °C; Urea; CD; Sodium acetate 20 mM/; reversible: yes; structure 2L3Y; whole UniProt chain shown.
As for F200A, the “denaturant midpoint” value worked out at 2.6 M.

The data set is the same for the next values; noted with them: Mus musculus; pH 4; 37 °C; Urea; Fluorescence; Sodium acetate 20 mM/; reversible: yes; structure 2L3Y; whole UniProt chain shown.
On to F200A, for which the “denaturant midpoint” value turned out to be 3.5 M.

The variants in a further data set derive from B4. The note with it: Homo sapiens; pH 7; Thermal; ANS fluorescence; PBS; transition: 2; reversible: yes; structure 1HK0; whole UniProt chain shown.
Turning to G61C, the Tm was found to be 69.6 °C and the “change of melting temperature, mutant” value is -7 °C.

Still in this data set, the particulars now being: Homo sapiens; pH 7; Thermal; CD; PBS; transition: 2; reversible: yes; structure 1HK0; whole UniProt chain shown.
In the case of G61C, the Tm turned out to be 73.9 °C and the “change of melting temperature, mutant” value is -6.1 °C.

Still in this data set, the particulars now being: Homo sapiens; pH 7; Thermal; Fluorescence; PBS; transition: 2; reversible: yes; structure 1HK0; whole UniProt chain shown.
On to G61C, for which the Tm came out at 74.3 °C.

The same data set, now with this note: Homo sapiens; pH 7; Thermal; light scattering; PBS; transition: 2; reversible: yes; structure 1HK0; whole UniProt chain shown.
Regarding G61C, the Tm was 75.1 °C.

The variants in the next data set derive from B5. The note with it: Escherichia coli (strain K12); pH 8.3; Thermal; DSC; borate 40 mM; structure 1AKM; whole UniProt chain shown.
For A326G, the Tm turned out to be 63 °C and the “unfolding enthalpy (calorimetric)” value came out at 660 kcal/mol.

Take K87Q: the Tm came out at 69.7 °C and the “unfolding enthalpy (calorimetric)” value stood at 690 kcal/mol.

As to R320A, the Tm came out at 69.6 °C and the “unfolding enthalpy (calorimetric)” value amounted to 710 kcal/mol.

Another data set covers variants of B6. The note with it: Sus scrofa; pH 7.5; Thermal; CD; Tris-HCl 5.0 mM; reversible: yes; structure 1CTS; whole UniProt chain shown.
With H301R, the Tm was 56.8 °C and the “change of melting temperature, mutant” value is -1.1 °C.

On to H301G, for which the Tm was found to be 56 °C and the “change of melting temperature, mutant” value was -1.9 °C.

Take D402G: the Tm is 62.5 °C and the “change of melting temperature, mutant” value turned out to be 4.6 °C.
